Publication PMC3880350, “The mononuclear metal center of type-I dihydroorotase from aquifex aeolicus” (BMC Biochemistry, 2013)
Blank lines part the entries; values can stand above or below the molecule they belong to.

Assays:
[1] = biological target: T1, A. aeolicus DHO-ATC complex (ATC active site) (Aquifex aeolicus, UniProt O66726); assay: X-ray crystal structure, […] Å; type: binding; settings: crystal soaked in 1 mM PALA, 15 mM dihydroorotate, pH 5, bisubstrate analogue, mutations only in the DHO partner
T1 construct: gene pyrB; both with 3 kDa N-terminal His tag (pRSETC), E. coli BL21(DE3); with Dihydroorotase

[2] = biological target: T2, A. aeolicus DHO-ATC complex (DHO active site) (Aquifex aeolicus, UniProt O66990, H180A/H232A); assay: X-ray crystal structure, […] Å; type: binding; settings: crystal soaked in 15 mM dihydroorotate, 1 mM PALA, pH 5; DHO active site with one zinc
T2 construct: gene pyrC; both subunits full length with 3 kDa N-terminal His tag (pRSETC), expressed separately in E. coli BL21(DE3), mixed equimolar, dodecamer (6 DHO + 6 ATC) isolated by gel filtration; DHO 422 residues; with Aspartate carbamoyltransferase catalytic subunit

[3] = biological target: the molecule itself; assay: crystal structure; DHO double mutant-ATC complex, hanging drop, room temperature, 30% ethylene glycol with barium chloride; crystals soaked in 1 mM PALA and 15 mM dihydroorotate at pH 5; 2.2 Å
[4] = biological target: T3, Aquifex aeolicus dihydroorotase (DHO) subunit, His232Ala mutant (Aquifex aeolicus, UniProt O66990 1-422, His232Ala); assay: SEC; purified subunits mixed in an equimolar ratio; complex isolated by gel filtration on a Sephacryl S-300 column; composition analysed by SDS-PAGE and ATC and DHO assays; settings: both partners purified
T3 construct: Dihydroorotase (pyrC) of Aquifex aeolicus with His232 replaced by alanine; made by PCR on the plasmid that encodes the DHO subunit; Same construct as m1 with the point mutation
T3 sequence: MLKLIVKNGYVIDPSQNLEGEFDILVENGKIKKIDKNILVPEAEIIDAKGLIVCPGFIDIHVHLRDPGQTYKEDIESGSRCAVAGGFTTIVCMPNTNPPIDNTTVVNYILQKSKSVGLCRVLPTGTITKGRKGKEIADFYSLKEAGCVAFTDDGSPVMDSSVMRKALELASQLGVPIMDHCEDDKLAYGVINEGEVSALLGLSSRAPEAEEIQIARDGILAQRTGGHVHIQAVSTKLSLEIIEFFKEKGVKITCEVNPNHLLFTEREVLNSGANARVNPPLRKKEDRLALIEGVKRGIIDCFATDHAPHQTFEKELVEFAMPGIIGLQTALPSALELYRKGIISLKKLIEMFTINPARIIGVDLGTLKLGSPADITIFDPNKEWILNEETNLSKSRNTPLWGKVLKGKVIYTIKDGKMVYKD

[5] = biological target: T4, Aquifex aeolicus dihydroorotase (DHO) subunit, wild type (Aquifex aeolicus, UniProt O66990 1-422); assay: as above; settings: both partners purified
T4 construct: Dihydroorotase (pyrC) of Aquifex aeolicus; gene amplified by PCR from the genome and inserted into pRSETC; One zinc ion per subunit; also called Wild Type DHO; A. aeolicus DHO
T4 sequence: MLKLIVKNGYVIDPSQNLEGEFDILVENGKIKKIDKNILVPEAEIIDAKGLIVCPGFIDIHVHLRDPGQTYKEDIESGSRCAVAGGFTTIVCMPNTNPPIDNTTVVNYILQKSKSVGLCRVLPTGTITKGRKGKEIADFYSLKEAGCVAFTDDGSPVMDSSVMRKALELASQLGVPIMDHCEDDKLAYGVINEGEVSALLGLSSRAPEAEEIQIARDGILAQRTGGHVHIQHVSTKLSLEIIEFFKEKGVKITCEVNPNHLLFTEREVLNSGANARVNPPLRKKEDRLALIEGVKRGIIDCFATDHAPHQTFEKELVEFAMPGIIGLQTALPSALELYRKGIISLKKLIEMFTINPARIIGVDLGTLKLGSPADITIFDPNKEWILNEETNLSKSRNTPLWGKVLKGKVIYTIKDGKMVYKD

[6] = biological target: T5, Aquifex aeolicus dihydroorotase (DHO) subunit, His180Ala mutant (Aquifex aeolicus, UniProt O66990 1-422, His180Ala); assay: as above; settings: both partners purified
T5 construct: Dihydroorotase (pyrC) of Aquifex aeolicus with His180 replaced by alanine; made by PCR on the plasmid that encodes the DHO subunit; Same construct as m1 with the point mutation
T5 sequence: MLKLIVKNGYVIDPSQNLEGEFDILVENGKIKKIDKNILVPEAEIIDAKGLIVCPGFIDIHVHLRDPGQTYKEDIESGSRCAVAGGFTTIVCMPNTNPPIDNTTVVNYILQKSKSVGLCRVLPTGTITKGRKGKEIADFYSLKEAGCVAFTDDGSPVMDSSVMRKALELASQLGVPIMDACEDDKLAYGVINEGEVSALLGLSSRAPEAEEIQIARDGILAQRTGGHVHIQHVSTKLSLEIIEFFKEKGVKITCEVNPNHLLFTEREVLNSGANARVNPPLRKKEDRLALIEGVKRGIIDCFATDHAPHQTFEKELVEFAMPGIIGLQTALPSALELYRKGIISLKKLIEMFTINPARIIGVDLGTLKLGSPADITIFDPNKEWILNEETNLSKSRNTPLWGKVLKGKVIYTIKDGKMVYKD

[7] = biological target: T6, Aquifex aeolicus dihydroorotase (DHO) subunit, His180Ala/His232Ala double mutant (Aquifex aeolicus, UniProt O66990 1-422, His180Ala | His232Ala); assay: as above; settings: both partners purified
T6 construct: Dihydroorotase (pyrC) of Aquifex aeolicus with His180 and His232 replaced by alanine; made by PCR on the plasmid that encodes the DHO subunit; 422 C-alpha atoms in the structure; Same construct as m1 with the two point mutations; In the crystal one zinc and dihydroorotate in the active site; also called DHO Double Mutant; mutant DHO
T6 sequence: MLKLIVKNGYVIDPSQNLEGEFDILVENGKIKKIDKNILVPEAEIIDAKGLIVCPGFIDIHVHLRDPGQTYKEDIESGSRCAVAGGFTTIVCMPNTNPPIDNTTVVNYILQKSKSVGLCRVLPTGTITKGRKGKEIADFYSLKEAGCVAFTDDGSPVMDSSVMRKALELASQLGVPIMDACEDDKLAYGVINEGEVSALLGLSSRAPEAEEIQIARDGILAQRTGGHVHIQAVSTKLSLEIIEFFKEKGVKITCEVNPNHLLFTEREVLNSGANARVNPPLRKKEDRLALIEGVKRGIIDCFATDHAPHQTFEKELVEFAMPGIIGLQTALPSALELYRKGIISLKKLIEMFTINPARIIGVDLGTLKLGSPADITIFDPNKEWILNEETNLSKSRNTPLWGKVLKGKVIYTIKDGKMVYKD

[8] = substrate: O=C1C[C@@H](C(=O)O)NC(=O)N1; assay: colorimetric carbamoyl aspartate formation, saturation curve; type: biochemical, Aquifex aeolicus
Source text: colorimetric carbamoyl aspartate formation, saturation curve on A. aeolicus DHO-ATC complex (DHO active site)

[9] = 250 mM Tris acetate (Figure 7; Methods: 50 mM), pH 8.3, 72°C, mutant DHO reconstituted with native ATC

Molecule: O=C(O)C[C@H](NC(=O)CP(=O)(O)O)C(=O)O [PALA]
X-ray crystal structure, 2.2 Å [1]: bisubstrate analog, N-phosphoacetyl L-aspartate (PALA) bound to the active site of the A. aeolicus ATC

Molecule: O=C1C[C@@H](C(=O)O)NC(=O)N1 [dihydroorotate]
X-ray crystal structure, 2.2 Å [2]: one DHO subunit with one zinc atom and dihydroorotate in its active site

binding result [4]: binds | binding result [5]: binds | binding result [6]: binds | binding result [7]: binds
B1: Aquifex aeolicus aspartate transcarbamoylase (ATC) subunit (enzyme)
chain: MRSLISSLDLTREEVEEILKYAKEFKEGKEETIKASAVLFFSEPSTRTRLSFEKAARELGIETYLVSGSESSTVKGESFFDTLKTFEGLGFDYVVFRVPFVFFPYKEIVKSLNLRLVNAGDGTHQHPSQGLIDFFTIKEHFGEVKDLRVLYVGDIKHSRVFRSGAPLLNMFGAKIGVCGPKTLIPRDVEVFKVDVFDDVDKGIDWADVVIWLRLQKERQKENYIPSESSYFKQFGLTKERFEKVKLYMHPGPVNRNVDIDHELVYTEKSLIQEQVKNGIPVRKAIYKFLWT
notes: Aspartate transcarbamoylase (pyrB) of Aquifex aeolicus; gene amplified by PCR from the genome and inserted into pRSETC; 291 residues superposed in the structure; also called native ATC; pyrB product
stoichiometry N [3]: 3

B2: A. aeolicus DHO-ATC complex (DHO active site) (Aquifex aeolicus VF5) (protein)
chain: MLKLIVKNGYVIDPSQNLEGEFDILVENGKIKKIDKNILVPEAEIIDAKGLIVCPGFIDIHVHLRDPGQTYKEDIESGSRCAVAGGFTTIVCMPNTNPPIDNTTVVNYILQKSKSVGLCRVLPTGTITKGRKGKEIADFYSLKEAGCVAFTDDGSPVMDSSVMRKALELASQLGVPIMDHCEDDKLAYGVINEGEVSALLGLSSRAPEAEEIQIARDGILAQRTGGHVHIQHVSTKLSLEIIEFFKEKGVKITCEVNPNHLLFTEREVLNSGANARVNPPLRKKEDRLALIEGVKRGIIDCFATDHAPHQTFEKELVEFAMPGIIGLQTALPSALELYRKGIISLKKLIEMFTINPARIIGVDLGTLKLGSPADITIFDPNKEWILNEETNLSKSRNTPLWGKVLKGKVIYTIKDGKMVYKD
notes: both subunits full length with 3 kDa N-terminal His tag (pRSETC), expressed separately in E. coli BL21(DE3), mixed equimolar, dodecamer (6 DHO + 6 ATC) isolated by gel filtration; DHO 422 residues; with Aspartate carbamoyltransferase catalytic subunit
Km ([8]; no exogenous zinc, 250 mM Tris acetate (Figure 4; Methods: 50 mM), pH 8.3, 75°C (Figure 4: 72°C), DHO reverse direction (hydrolysis)): 1520 ± 300 µM

B3: A. aeolicus DHO-ATC complex (DHO active site) (Aquifex aeolicus VF5; H232A) (protein)
chain: MLKLIVKNGYVIDPSQNLEGEFDILVENGKIKKIDKNILVPEAEIIDAKGLIVCPGFIDIHVHLRDPGQTYKEDIESGSRCAVAGGFTTIVCMPNTNPPIDNTTVVNYILQKSKSVGLCRVLPTGTITKGRKGKEIADFYSLKEAGCVAFTDDGSPVMDSSVMRKALELASQLGVPIMDHCEDDKLAYGVINEGEVSALLGLSSRAPEAEEIQIARDGILAQRTGGHVHIQAVSTKLSLEIIEFFKEKGVKITCEVNPNHLLFTEREVLNSGANARVNPPLRKKEDRLALIEGVKRGIIDCFATDHAPHQTFEKELVEFAMPGIIGLQTALPSALELYRKGIISLKKLIEMFTINPARIIGVDLGTLKLGSPADITIFDPNKEWILNEETNLSKSRNTPLWGKVLKGKVIYTIKDGKMVYKD
notes: as for B2
Km [8, 9]: 1340 ± 220 µM

B4: A. aeolicus DHO-ATC complex (DHO active site) (Aquifex aeolicus VF5; H180A/H232A) (protein)
chain: MLKLIVKNGYVIDPSQNLEGEFDILVENGKIKKIDKNILVPEAEIIDAKGLIVCPGFIDIHVHLRDPGQTYKEDIESGSRCAVAGGFTTIVCMPNTNPPIDNTTVVNYILQKSKSVGLCRVLPTGTITKGRKGKEIADFYSLKEAGCVAFTDDGSPVMDSSVMRKALELASQLGVPIMDACEDDKLAYGVINEGEVSALLGLSSRAPEAEEIQIARDGILAQRTGGHVHIQAVSTKLSLEIIEFFKEKGVKITCEVNPNHLLFTEREVLNSGANARVNPPLRKKEDRLALIEGVKRGIIDCFATDHAPHQTFEKELVEFAMPGIIGLQTALPSALELYRKGIISLKKLIEMFTINPARIIGVDLGTLKLGSPADITIFDPNKEWILNEETNLSKSRNTPLWGKVLKGKVIYTIKDGKMVYKD
notes: as for B2
Km [8, 9]: 1550 ± 300 µM

B5: A. aeolicus DHO-ATC complex (DHO active site) (Aquifex aeolicus VF5; H180A) (protein)
chain: MLKLIVKNGYVIDPSQNLEGEFDILVENGKIKKIDKNILVPEAEIIDAKGLIVCPGFIDIHVHLRDPGQTYKEDIESGSRCAVAGGFTTIVCMPNTNPPIDNTTVVNYILQKSKSVGLCRVLPTGTITKGRKGKEIADFYSLKEAGCVAFTDDGSPVMDSSVMRKALELASQLGVPIMDACEDDKLAYGVINEGEVSALLGLSSRAPEAEEIQIARDGILAQRTGGHVHIQHVSTKLSLEIIEFFKEKGVKITCEVNPNHLLFTEREVLNSGANARVNPPLRKKEDRLALIEGVKRGIIDCFATDHAPHQTFEKELVEFAMPGIIGLQTALPSALELYRKGIISLKKLIEMFTINPARIIGVDLGTLKLGSPADITIFDPNKEWILNEETNLSKSRNTPLWGKVLKGKVIYTIKDGKMVYKD
notes: as for B2
Km [8, 9]: 1650 ± 260 µM
